The target of the assay is ΔNEG2-CFTR (CFTR with amino acids 817-838 deleted) (human), P13569. The assay is described as follows: cell-based or functional assay.
ΔNEG2-CFTR (CFTR with amino acids 817-838 deleted) (human), P13569, sequence (P13569 other isoform, or with tags, fused parts or gaps mutant): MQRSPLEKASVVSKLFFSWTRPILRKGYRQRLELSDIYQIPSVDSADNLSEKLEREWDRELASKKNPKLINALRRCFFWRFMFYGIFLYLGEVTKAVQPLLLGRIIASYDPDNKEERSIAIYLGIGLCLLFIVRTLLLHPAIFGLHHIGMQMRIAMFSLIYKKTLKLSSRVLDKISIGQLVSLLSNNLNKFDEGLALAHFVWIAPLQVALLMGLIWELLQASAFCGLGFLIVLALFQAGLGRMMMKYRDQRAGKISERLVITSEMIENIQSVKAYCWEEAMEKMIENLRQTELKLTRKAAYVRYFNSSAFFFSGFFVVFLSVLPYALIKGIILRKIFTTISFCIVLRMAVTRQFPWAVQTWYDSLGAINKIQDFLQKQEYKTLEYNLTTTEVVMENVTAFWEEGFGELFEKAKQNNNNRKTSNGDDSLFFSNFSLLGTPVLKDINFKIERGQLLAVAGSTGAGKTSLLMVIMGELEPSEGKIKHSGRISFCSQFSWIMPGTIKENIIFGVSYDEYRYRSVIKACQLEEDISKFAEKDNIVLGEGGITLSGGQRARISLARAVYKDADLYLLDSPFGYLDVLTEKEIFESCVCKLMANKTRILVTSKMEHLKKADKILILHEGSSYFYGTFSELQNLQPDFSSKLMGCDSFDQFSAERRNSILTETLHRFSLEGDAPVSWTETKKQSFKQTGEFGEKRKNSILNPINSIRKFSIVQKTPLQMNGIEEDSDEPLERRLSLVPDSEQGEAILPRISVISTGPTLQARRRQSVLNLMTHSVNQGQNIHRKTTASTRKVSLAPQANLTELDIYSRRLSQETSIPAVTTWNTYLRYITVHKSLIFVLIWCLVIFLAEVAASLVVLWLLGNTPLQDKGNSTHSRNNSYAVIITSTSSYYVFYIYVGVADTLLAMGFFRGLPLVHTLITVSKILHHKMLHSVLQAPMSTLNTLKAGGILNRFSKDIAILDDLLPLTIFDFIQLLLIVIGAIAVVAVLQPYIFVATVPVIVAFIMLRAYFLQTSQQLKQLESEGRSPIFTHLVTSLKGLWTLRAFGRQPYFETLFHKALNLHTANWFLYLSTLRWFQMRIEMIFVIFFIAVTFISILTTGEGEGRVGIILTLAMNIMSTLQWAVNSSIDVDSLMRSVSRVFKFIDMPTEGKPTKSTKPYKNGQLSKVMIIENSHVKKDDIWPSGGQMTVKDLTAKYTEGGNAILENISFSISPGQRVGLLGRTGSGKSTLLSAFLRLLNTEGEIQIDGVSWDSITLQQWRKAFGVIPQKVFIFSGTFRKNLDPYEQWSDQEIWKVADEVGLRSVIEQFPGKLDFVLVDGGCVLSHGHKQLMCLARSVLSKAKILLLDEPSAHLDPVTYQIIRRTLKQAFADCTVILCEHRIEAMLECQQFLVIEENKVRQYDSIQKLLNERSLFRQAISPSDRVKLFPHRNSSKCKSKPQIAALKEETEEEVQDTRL

As to GLEISEEINEEDLKECFFDDME [synthetic NEG2 peptide (22 amino acid peptide corresponding to CFTR amino acids 817-838)], the stimulation of single channel (peptide concentration) came to 0.44 µM.

The values above are taken from patent US20040121957A1.
